We go through two molecules from patent US20210380699A1 (published 2021).

Assay [1] addresses T1, Human PD-L1 expressed on cells (human, UniProt Q9NZQ7 19-290). Nature of the assay: cell-based or functional assay.
Assay [2] deals with T2, Human PD-L1 His (human PD-L1 ECD with C-terminal His tag) (human, UniProt Q9NZQ7 19-238).
T2 construct: Biotinylated in ELISA and AlphaScreen assays; also called hPD-L1-his; biotinylated PD-L1 his
Description: ELISA, biotin-PD-L1 to plate-bound PD-1, antibody titrated. Here is the method: (§1) Excess protein was removed by washing with PBS-Tween (0.1% v/v) and the wells were blocked with 1% w/v bovine serum albumin (BSA, Sigma) in PBS for 1 hour at room temperature, after which plates were washed with PBS-Tween as above. 60 μL of a titration (three-fold serial dilution) of antibody was added to a 96-well, non-binding plate diluted in ELISA assay buffer (PBS +0.1% BSA). […] The plate was incubated for 30 minutes before transferring 50 μL to the coated plates. The coated plates were incubated for 1 hour at room temperature. Excess protein was removed by washing with PBS-Tween (0.1% v/v). PD-L1 binding was detected using streptavidin labelled europium (Perkin Elmer) diluted 1/1000 in DELFIA assay buffer (Perkin Elmer). The plates were washed with TBS (Tris buffered saline)-Tween (0.1% v/v) and 50 μL/well of DELFIA Enhancement solution (Perkin Elmer) was added to the plate. Time-resolved fluorescence was measured at 615 nm on an Envision plate reader (PerkinElmer). Percentage specific binding was calculated as defined in Equation 3. IC50 values were determined using GraphPad Prism software by curve fitting using a four-parameter logistic equation (Equation 4). Values for KM121 antibodies are a mean of three independent experiments. Values for KM122 are from a single experiment.

In assay [3] the target is T3, Cyno PD-L1 FLAG (cynomolgus PD-L1 ECD with FLAG tag) (cynomolgus monkey).
T3 construct: also called cynomolgus monkey PD-L1-FLAG
Description: SPR 37C, antibody captured, PD-L1 analyte.

Assay [4] concerns the target T2, Human PD-L1 His (human PD-L1 ECD with …). Description: SPR 37C, antibody captured, PD-L1 analyte.
Assay [5] deals with T1, Human PD-L1 expressed on cells. Description: flow cytometry on CHO hPD-L1 cells, competitor biotin-PD-1-Fc, n = 1. Here is the method: (§2) 150 μL FACS buffer is added and cells washed as described above. […] Cells are incubated at 4° C. for 60 minutes. Cells are washed twice with 150 μL FACS buffer, centrifuging at 300 g for 3 minutes after each wash step and aspirating supernatant. Cells are fixed, washed and resuspended for analysis as above. APC signal intensity (geometric mean) is measured by flow cytometry using a Beckman Coulter CYTOFLEX instrument. Data is plotted as percentage of receptor binding.

Assay [6] has the same target. Nature of the assay: flow cytometry on CHO hPD-L1 cells, competitor biotin-PD-1-Fc, n = 2. Here is the method:
as §2

For assay [7] the target is unchanged. Nature of the assay: cell-based or functional assay. The source holds these as a separate data set.
Assay [8] shares this target. Description: flow cytometry on CHO hPD-L1 cells, competitor biotin-CD80-Fc, n = 2. Here is the method:
as §2
(§3) All other steps are performed as per plate 2.

Assay [9] shares this target. Nature of the assay: flow cytometry on CHO hPD-L1 cells, competitor biotin-CD80-Fc, n = 1. Here is the method: as §2, §3
Assay [10] concerns the target T3, Cyno PD-L1 FLAG (cynomolgus PD-L1 ECD …). Nature of the assay: SPR 25C, antibody captured, PD-L1 analyte. Here is the method:
(§4) Label-free surface plasmon resonance (SPR) analysis was carried out on the ProteOn XPR36 (BioRad) array SPR machine. An anti-human IgG capture surface was created on a GLC biosensor chip using a combination of anti-human Fc antibodies (Jackson Labs 09-005-008,109-006-008 and 309-006-008) by amine coupling. […] The data was analysed using the 1:1 model inherent to the ProteOn XPR36 analysis software.

Assay [11] deals with T2, Human PD-L1 His (human PD-L1 ECD with …). Nature of the assay: SPR 25C, antibody captured, PD-L1 analyte. As to the method: as §4
A further assay has as its target T4, Mouse PD-L1 ECD His (mouse, UniProt Q9EP73 19-239).
T4 construct: also called mouse PD-L1 (his-tagged)
Description: SPR 25C and 37C.

Assay [12] addresses T2, Human PD-L1 His (human PD-L1 ECD with …). Description: ELISA, biotin-PD-L1 to plate-bound CD80, antibody titrated. Here is the method: as §1
For assay [13], the target named is T1, Human PD-L1 expressed on cells. Description: cell-based or functional assay. This is another data set of the same source.

T1 sequence (Q9NZQ7 19-290 limits assumed): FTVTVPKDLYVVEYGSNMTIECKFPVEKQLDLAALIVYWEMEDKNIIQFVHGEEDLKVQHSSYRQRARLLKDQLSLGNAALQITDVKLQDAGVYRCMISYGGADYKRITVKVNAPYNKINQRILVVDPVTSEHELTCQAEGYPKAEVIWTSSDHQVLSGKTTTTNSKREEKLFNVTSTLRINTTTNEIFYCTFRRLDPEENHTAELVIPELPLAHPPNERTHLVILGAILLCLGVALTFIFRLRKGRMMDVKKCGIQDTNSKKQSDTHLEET
T2 sequence (Q9NZQ7 19-238 limits assumed): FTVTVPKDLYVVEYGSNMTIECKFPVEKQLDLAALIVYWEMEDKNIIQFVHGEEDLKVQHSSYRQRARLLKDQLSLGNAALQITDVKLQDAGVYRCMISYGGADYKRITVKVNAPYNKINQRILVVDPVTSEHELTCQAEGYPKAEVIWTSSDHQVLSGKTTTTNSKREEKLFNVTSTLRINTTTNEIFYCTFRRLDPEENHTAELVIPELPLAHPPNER
T3 sequence (chain, as listed by the source limits assumed): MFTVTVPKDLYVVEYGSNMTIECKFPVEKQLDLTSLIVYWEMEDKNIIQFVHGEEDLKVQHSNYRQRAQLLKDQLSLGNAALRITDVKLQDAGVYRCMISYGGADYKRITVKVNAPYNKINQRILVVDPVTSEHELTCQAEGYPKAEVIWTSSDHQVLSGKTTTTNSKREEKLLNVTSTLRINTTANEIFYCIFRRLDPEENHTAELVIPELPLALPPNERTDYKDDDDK
T4 sequence (Q9EP73 other isoform, or with tags, fused parts or gaps): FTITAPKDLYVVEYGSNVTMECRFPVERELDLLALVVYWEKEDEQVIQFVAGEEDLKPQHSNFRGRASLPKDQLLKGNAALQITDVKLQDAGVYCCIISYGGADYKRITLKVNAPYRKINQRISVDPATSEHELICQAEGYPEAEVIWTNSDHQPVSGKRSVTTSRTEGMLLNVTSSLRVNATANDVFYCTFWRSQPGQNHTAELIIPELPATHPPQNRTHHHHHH

B1: 416E01 (human IgG1) (antibody, V domains shown)
VH: EVQLAESGGGLVQPGGSLRLSCAASGFTFSNYAMSWVRQTPGKGLEWVSAISFSGGTTYYADSVKGRFTISRDNSKNTLYLHMNSLRADDTAVYYCAKDEAPAGATFFDSWGQGTLVTVSS
VL: DIQMTQSPSSVSASVGDRVTITCRASQGIRRWLAWYQQKPGKAPKLLISGASSLQSGVPSRFSGSGSGTDFTLIITSLQPEDFATYYCQQANSFPITFGQGTRLEIKR
In the case of B1, in assay [1], the “EC50, ADCC reporter assay, n = 1” value was 0.08 nM; the “EC50, ADCC reporter assay, n = 2” value was 0.0106 nM; the “EC50, ADCC reporter assay, n = 3” value worked out at 0.0229 nM; the “max fold induction, ADCC reporter assay, n = 1” value was found to be 32.1 fold. In addition, in assay [1], the “max fold induction, ADCC reporter assay, n = 2” value was 33.8 fold and the “max fold induction, ADCC reporter assay, n = 3” value was 60.2 fold. Half-maximal inhibition in assay [2] (IC50) was put at 1.72 nM. For the same molecule, the affinity in assay [3], expressed as Kd, was 0.998 nM. Moreover, binding in assay [4] was characterised by a dissociation constant (Kd) of 0.511 nM. For the same molecule, the 50% inhibitory concentration (IC50) in [5] came out at 0.81 nM. The IC50 in assay [6] was found to be 0.89 nM. Besides, in assay [7], the “mean EC50, IFNγ induction, monocyte-T cell co-culture” value is 0.064 nM and the “mean fold increase IFNγ, monocyte-T cell co-culture” value stood at 2.23 fold. Besides, the 50% inhibitory concentration (IC50) in [8] came to 0.89 nM. This molecule also had a concentration for half-maximal inhibition (IC50) in assay [9] of 1.04 nM. Besides, the dissociation constant Kd in assay [10] worked out at 0.411 nM. The dissociation constant (Kd) in [11] was found to be 0.193 nM. In addition, the binding result in the assay with Mouse PD-L1 ECD His was “no binding”. The molecule further displayed a half-inhibitory concentration (IC50) in [12] of 0.98 nM. In addition, in assay [13], the “EC50, IL-2 induction, murine T cell hybridoma assay, n = 1” value was 0.19 nM; the “EC50, IL-2 induction, murine T cell hybridoma assay, n = 2” value is 0.15 nM; the “EC50, IL-2 induction, murine T cell hybridoma assay, n = 3” value amounted to 0.14 nM.

B2: 413G05 (antibody, human IgG1, kappa, V domains shown)
VH: QVQLVESGGGLVKPGGSLRLSCAASGFTFSDYYMSWIRQVPGKGLEWVSYISTSGSTIYYADSVKGRFTISRDNAKNSLYLQMNSLRAEDAAVYHCARGITGTNFYHYGLGVWGQGTTVTVSS
VL: DIQMTQSPSSVSASVGDRVTITCRASQGINSWLAWYQQKPGKAPKLLIYAASTLQSGVPSRFSGSGSGADFTLTISSLQPEDFATYYCQQVNSFPLTFGGGTKVEIKR
With B2, in assay [1], the “EC50, ADCC reporter assay, n = 1” value worked out at 0.0219 nM; the “EC50, ADCC reporter assay, n = 2” value came out at 0.0209 nM; the “EC50, ADCC reporter assay, n = 3” value is 0.0275 nM; the “max fold induction, ADCC reporter assay, n = 1” value was determined as 13.2 fold. In [1], the “max fold induction, ADCC reporter assay, n = 2” value was 16.4 fold and the “max fold induction, ADCC reporter assay, n = 3” value amounted to 23.4 fold. The molecule also had a half-inhibitory concentration (IC50) in assay [2] of 2.02 nM. Moreover, the Kd in assay [3] was found to be 0.046 nM. This molecule also gave a Kd in [4] of 0.05 nM. The 50% inhibitory concentration (IC50) in assay [5] turned out to be 1.07 nM. In assay [6], this molecule yielded an IC50 of 1.17 nM. Moreover, in assay [7], the “mean EC50, IFNγ induction, monocyte-T cell co-culture” value amounted to 0.082 nM and the “mean fold increase IFNγ, monocyte-T cell co-culture” value was 2.85 fold. This molecule displayed an IC50 in assay [8] of 1.17 nM. Besides, the concentration for half-maximal inhibition (IC50) in [9] is 1.09 nM. Besides, in [10], the dissociation constant (Kd) came out at 0.015 nM. The Kd in [11] was determined as 0.024 nM. Moreover, the binding result in the assay with Mouse PD-L1 ECD His is reported as “no binding”. The midpoint of inhibition in assay [12], the IC50, lay at 1.1 nM. Further, in assay [13], the “EC50, IL-2 induction, murine T cell hybridoma assay, n = 1” value stood at 0.29 nM; the “EC50, IL-2 induction, murine T cell hybridoma assay, n = 2” value was 0.11 nM; the “EC50, IL-2 induction, murine T cell hybridoma assay, n = 3” value worked out at 0.29 nM.
